Values of other authors, collected in patent US8901167B2, “Product and process for inhibition of biofilm development” (National Jewish Health, priority 2004, dated 2014).

B1: lactoferrin: a major component of the secondary neutrophil granules (protein, UniProt P02788 20-710, looked up)
Lactotransferrin: GRRRSVQWCAVSQPEATKCFQWQRNMRKVRGPPVSCIKRDSPIQCIQAIAENRADAVTLDGGFIYEAGLAPYKLRPVAAEVYGTERQPRTHYYAVAVVKKGGSFQLNELQGLKSCHTGLRRTAGWNVPIGTLRPFLNWTGPPEPIEAAVARFFSASCVPGADKGQFPNLCRLCAGTGENKCAFSSQEPYFSYSGAFKCLRDGAGDVAFIRESTVFEDLSDEAERDEYELLCPDNTRKPVDKFKDCHLARVPSHAVVARSVNGKEDAIWNLLRQAQEKFGKDKSPKFQLFGSPSGQKDLLFKDSAIGFSRVPPRIDSGLYLGSGYFTAIQNLRKSEEEVAARRARVVWCAVGEQELRKCNQWSGLSEGSVTCSSASTTEDCIALVLKGEADAMSLDGGYVYTAGKCGLVPVLAENYKSQQSSDPDPNCVDRPVEGYLAVAVVRRSDTSLTWNSVKGKKSCHTAVDRTAGWNIPMGLLFNQTGSCKFDEYFSQSCAPGSDPRSNLCALCIGDEQGENKCVPNSNERYYGYTGAFRCLAENAGDVAFVKDVTVLQNTDGNNNEAWAKDLKLADFALLCLDGKRKPVTEARSCHLAMAPNHAVVSRMDKVERLKQVLLHQQAKFGRNGSDCPDKFCLFQSETKNLLFNDNTECLARLHGKTTYEKYLGPQYVAGITNLKKCSTSPLLEACEFLRK
B2: rhDNase: purified rhDNase (Pulmozyme; Genentech), digests extracellular DNA present in the CF airway (protein, UniProt P24855 23-282, looked up)
Deoxyribonuclease-1: LKIAAFNIQTFGETKMSNATLVSYIVQILSRYDIALVQEVRDSHLTAVGKLLDNLNQDAPDTYHYVVSEPLGRNSYKERYLFVYRPDQVSAVDSYYYDDGCEPCGNDTFNREPAIVRFFSRFTEVREFAIVPLHAAPGDAVAEIDALYDVYLDVQEKWGLEDVMLMGDFNAGCSYVRPSQWSSIRLWTSPTFQWLIPDSADTTATPTHCAYDRIVVAGMLLRGAVVPDSALPFNFQAAYGLSDQLAQAISDHYPVEVMLK

Assays:
P. aeruginosa biofilm = conditions: literature refs 39, 43
[1] = tested on: extracellular DNA present in the CF airway; conditions: inhalation, CF patients; Fuchs et al. 1994

Row | Molecule | Effect on P. aeruginosa biofilm formation (P. aeruginosa biofilm) | Clinical effect on sputum viscosity and forced expiratory volume (FEV) [1]
1 | B1 | prevent P. aeruginosa biofilm development | 
2 | B2 |  | clinically effective for diminishing sputum viscosity and stabilizing the forced expiratory volume
